Assay results taken from patent publication US20030108554A1 (published 2003).

Experiments:
GIP130a = biological target: T1, GIP130a (human, UniProt Q4L180 1-1135); assay: yeast two-hybrid and three-hybrid (conclusion)
T1 construct: Full length; tested as GAL4 domain fusion in yeast two-hybrid
T1 sequence: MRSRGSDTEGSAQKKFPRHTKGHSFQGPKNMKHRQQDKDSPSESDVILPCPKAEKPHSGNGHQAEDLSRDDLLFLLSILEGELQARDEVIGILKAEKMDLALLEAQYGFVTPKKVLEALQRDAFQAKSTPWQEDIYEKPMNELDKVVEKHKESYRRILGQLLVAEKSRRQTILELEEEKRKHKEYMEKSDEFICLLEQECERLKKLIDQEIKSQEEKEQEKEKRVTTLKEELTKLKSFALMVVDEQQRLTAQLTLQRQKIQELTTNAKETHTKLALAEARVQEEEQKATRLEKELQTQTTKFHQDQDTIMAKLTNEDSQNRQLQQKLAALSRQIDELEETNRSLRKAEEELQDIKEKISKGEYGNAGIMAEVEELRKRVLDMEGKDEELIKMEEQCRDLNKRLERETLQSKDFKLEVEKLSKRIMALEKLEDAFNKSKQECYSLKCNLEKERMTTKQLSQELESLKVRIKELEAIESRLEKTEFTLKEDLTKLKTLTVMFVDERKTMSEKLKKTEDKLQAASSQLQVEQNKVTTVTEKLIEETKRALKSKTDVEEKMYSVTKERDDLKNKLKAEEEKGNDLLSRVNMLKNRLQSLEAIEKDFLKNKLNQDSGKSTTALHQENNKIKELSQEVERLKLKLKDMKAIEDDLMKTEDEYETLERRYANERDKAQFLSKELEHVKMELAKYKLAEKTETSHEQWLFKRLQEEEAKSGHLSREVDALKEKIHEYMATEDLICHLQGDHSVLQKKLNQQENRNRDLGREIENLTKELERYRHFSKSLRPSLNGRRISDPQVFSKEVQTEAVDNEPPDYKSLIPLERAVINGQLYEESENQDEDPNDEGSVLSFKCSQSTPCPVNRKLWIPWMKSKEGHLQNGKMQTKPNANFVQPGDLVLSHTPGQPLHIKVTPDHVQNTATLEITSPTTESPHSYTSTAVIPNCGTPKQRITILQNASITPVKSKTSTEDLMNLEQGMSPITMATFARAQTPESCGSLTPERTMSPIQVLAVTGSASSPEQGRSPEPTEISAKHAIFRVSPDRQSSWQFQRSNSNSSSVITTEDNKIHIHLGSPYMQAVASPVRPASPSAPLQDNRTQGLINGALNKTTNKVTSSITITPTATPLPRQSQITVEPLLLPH
Procedure: (§1) Accordingly, we have observed with a yeast three-hybrid system that GPBP expression efficiently impairs both I-20 and GIP90 aggregation, and that I-20 and GIP90 efficiently impair GPBP aggregation.
(§2) Deletion mutants were obtained using specific primers and PCR, followed by cloning of the resulting cDNAs in the pGBT9 and pGAD424 vectors. The assays were performed in SFY526 or HF7c Saccharomyces cerevisiae strains, with pGBT9 as GAL4 binding domain vector and pGAD424 as GAL4 activation domain vector, by the lift colony assay procedure. Briefly, the yeast cells were co-transformed with constructs of both binding domain and activation domain vectors, and the co-transformants were selected in medium deficient in both tryptophan and leucine. After five days of incubation at 30° C. the colonies were tested for the expression of β-galactosidase with X-Gal substrate (0.75 mg/ml). […] When the assays were performed with the HF7c strain, the interactions were assessed by the lift colony assay procedure and by growth in medium deficient in histidine, tryptophan and leucine. For yeast three-hybrid system, we used the pBRIDGE vector, which allows the conditional expression of a third protein apart from the usual GAL4 binding and activation domain-fusion proteins of the two-hybrid system. In this case, the expression of GPBP or I-20 or GIP90 was driven by Met25 promoter, active in absence of methionine. In these experiments, the transformed SFY526 cells were plated in medium deficient in tryptophan, leucine and methionine, and subjected to the colony lift assay after five days at 30° C. In the case of the strain HF7c the colonies grown in the cited plates were streaked on medium with the additional deficiency of histidine.

GIP130c = biological target: T2, GIP130c (human, UniProt Q4L180 1-1128); assay: yeast two-hybrid and three-hybrid (conclusion)
T2 construct: Full length; tested as GAL4 domain fusion in yeast two-hybrid
T2 sequence: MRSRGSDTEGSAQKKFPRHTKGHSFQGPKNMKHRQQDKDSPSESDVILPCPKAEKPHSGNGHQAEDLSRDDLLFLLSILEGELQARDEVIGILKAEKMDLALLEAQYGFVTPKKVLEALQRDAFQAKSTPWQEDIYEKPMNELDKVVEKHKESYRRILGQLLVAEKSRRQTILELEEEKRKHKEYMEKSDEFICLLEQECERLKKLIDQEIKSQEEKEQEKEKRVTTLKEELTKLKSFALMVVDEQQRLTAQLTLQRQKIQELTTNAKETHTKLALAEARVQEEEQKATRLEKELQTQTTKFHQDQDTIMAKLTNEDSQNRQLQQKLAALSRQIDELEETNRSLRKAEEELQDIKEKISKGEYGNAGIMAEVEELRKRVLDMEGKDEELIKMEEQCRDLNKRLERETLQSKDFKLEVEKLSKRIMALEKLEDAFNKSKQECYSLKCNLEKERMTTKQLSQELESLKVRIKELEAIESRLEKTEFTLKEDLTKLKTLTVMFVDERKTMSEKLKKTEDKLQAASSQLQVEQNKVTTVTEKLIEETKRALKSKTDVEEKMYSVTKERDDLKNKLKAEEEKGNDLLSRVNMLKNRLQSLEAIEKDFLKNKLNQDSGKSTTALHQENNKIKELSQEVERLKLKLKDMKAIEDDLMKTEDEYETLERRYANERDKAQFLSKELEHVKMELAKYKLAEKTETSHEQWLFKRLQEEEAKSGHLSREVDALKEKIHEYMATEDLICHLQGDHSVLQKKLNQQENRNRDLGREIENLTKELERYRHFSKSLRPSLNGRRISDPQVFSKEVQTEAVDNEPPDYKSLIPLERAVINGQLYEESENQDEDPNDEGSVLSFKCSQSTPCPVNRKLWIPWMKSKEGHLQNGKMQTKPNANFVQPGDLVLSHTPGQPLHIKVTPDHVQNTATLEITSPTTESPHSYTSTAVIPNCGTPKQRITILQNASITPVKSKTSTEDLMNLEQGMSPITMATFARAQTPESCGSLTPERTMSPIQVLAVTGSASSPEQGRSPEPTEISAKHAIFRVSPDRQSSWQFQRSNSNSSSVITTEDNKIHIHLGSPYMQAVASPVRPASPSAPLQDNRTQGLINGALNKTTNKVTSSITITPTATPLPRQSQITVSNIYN
Procedure: as §1, §2

binding result (GIP130a): binds
binding result (GIP130c): binds
B1: Goodpasture antigen binding protein (GPBP) (enzyme, UniProt Q9Y5P4 1-624, looked up)
chain: MSDNQSWNSSGSEEDPETESGPPVERCGVLSKWTNYIHGWQDRWVVLKNNALSYYKSEDETEYGCRGSICLSKAVITPHDFDECRFDISVNDSVWYLRAQDPDHRQQWIDAIEQHKTESGYGSESSLRRHGSMVSLVSGASGYSATSTSSFKKGHSLREKLAEMETFRDILCRQVDTLQKYFDACADAVSKDELQRDKVVEDDEDDFPTTRSDGDFLHSTNGNKEKLFPHVTPKGINGIDFKGEAITFKATTAGILATLSHCIELMVKREDSWQKRLDKETEKKRRTEEAYKNAMTELKKKSHFGGPDYEEGPNSLINEEEFFDAVEAALDRQDKIEEQSQSEKVRLHWPTSLPSGDAFSSVGTHRFVQKPYSRSSSMSSIDLVSASDDVHRFSSQVEEMVQNHMTYSLQDVGGDANWQLVVEEGEMKVYRREVEENGIVLDPLKATHAVKGVTGHEVCNYFWNVDVRNDWETTIENFHVVETLADNAIIIYQTHKRVWPASQRDVLYLSVIRKIPALTENDPETWIVCNFSVDHDSAPLNNRCVRAKINVAMICQTLVSPPEGNQEISRDNILCKITYVANVNPGGWAPASVLRAVAKREYPKFLKRFTSYVQEKTAGKPILF
notes: Protein kinase; Fusion parts are not written as pieces
